From article PMC1931592
Values belong to the binder of their own block, whether it stands above or below them.

Target: Recombinant human caspase-9 (active) (human) (UniProt P55211)
Assay: enzyme inhibition assay (fluorogenic substrate cleavage); one unit of active recombinant human caspase incubated with various concentrations of peptide inhibitor in 100 mM NaCl, 50 mM HEPES, 10 mM DTT, 1 mM EDTA, 10% glycerol, 0.1% CHAPS, pH 7.4, 37°C, 30 min; then 200 μM substrate (Ac-DEVD-MCA for caspases-3 and -7, Ac-IETD-MCA for caspase-8, Ac-LEHD-MCA for caspase-9); apparent Ki = IC50/(1+[S]/Km)

Chain of Recombinant human caspase-9 (active) (human) (P55211 whole entry): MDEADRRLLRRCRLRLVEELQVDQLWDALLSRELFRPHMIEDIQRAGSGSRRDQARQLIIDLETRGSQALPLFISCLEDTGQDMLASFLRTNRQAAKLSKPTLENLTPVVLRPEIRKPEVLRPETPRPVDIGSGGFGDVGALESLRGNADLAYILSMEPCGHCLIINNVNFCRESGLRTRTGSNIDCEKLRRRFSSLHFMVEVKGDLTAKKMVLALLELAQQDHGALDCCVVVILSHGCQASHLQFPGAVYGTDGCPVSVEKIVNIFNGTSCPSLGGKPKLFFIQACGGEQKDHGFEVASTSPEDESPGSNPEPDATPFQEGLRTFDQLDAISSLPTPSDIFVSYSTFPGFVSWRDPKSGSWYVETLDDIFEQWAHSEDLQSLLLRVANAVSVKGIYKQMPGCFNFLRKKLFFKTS

Ki: > 200 nM
B1: Ac-DMQD-CHO (peptide)
peptide: Ac-DMQD-aldehyde
SMILES: CSCC[C@H](NC(=O)[C@H](CC(=O)O)NC(C)=O)C(=O)N[C@@H](CCC(N)=O)C(=O)N[C@H](C=O)CC(=O)O

Ki: 14.5 nM
B2: Ac-DQTD-CHO (peptide)
peptide: Ac-DQTD-aldehyde
SMILES: CC(=O)N[C@@H](CC(=O)O)C(=O)N[C@@H](CCC(N)=O)C(=O)N[C@H](C(=O)N[C@H](C=O)CC(=O)O)[C@@H](C)O
